Test results as given in patent publication US20240174985A1, “METHOD FOR PRODUCING OVARIAN SOMATIC CELL-LIKE CELLS, AND METHOD FOR INDUCING DIFFERENTIATION OF PRIMATE PLURIPOTENT STEM CELLS INTO OVARIAN SOMATIC CELL-LIKE CELLS” (Kyoto University, priority 2021, published 2024).

Legend:
Type in all cases: cell-based
human iPS cells [1] = assay: Induction of differentiation from human iPS cells into ovarian somatic cell-like cells (FACS of OSR1-tdTomato/NR5A1-EGFP reporters, observation of embryoid bodies); conditions: Activin A 10 ng/ml added between day 2 and day 4
Source text: In order to conveniently observe the expression of genes typical at each developmental stage, a human iPS cell line 1390G3 was genetically modified, and a DNA sequence that emits red fluorescence (tdTomato) with the expression of the OSR1 gene, green fluorescence (EGFP) with the expression of the NR5A1 gene, and red fluorescence (tdTomato) with the expression of the FOXL2 gene was manufactured (see FIG. 1, and after introduction into the chromosome, a portion of “PGKp-Neo (or Puro)-pA” portion was deleted with Cre). An iPS cell line into which two DNA sequences of OSR1 and NR5A1 had been introduced (which may be hereinafter abbreviated as “OTNG”), and an iPS cell line into which two DNA sequences of NR5A1 and FOXL2 had been introduced (which may be hereinafter abbreviated as “NGFT”) were manufactured. In the present test, the OTNG strain was used in most of the experiments. Furthermore, NR5A1 and SF1 are the same gene.
The cells at each stage were analyzed using a flow cytometer (BD FACSAria III).
The ES cells of monkeys and human iPS cells are considered to be similar to EpiLC in a slightly advanced state in terms of differentiation, as compared with mouse ES cells. Therefore, in the examination using monkey or human pluripotent stem cells in the present test, step 0 was omitted and the process was started from step 1. […]

human iPS cells [2] = assay: Quantitative PCR of marker genes in cells induced from human iPS cells; conditions: Activin A 10 ng/mL added between day 2 and day 4, fibronectin plane culture
Source text: The relative expression level of each marker gene was confirmed using a PCR apparatus (BIO-RAD CFX384 Real-Time System) with the following primers and conditions. In the tables, the PPIA gene and the RPLP0 gene were used as housekeeping genes. The difference in qPCR is a difference from the average value taken as “(PPIA+RPLP0)/2”. In addition, the ERCC gene was used as an absolute control between samples.

[3] = system: cynomolgus monkey ES cells

B1: Activin A: TGF-β family member produced by multiple cell species during development (protein, UniProt P08476 311-426, looked up)
Inhibin beta A chain: GLECDGKVNICCKKQFFVSFKDIGWNDWIIAPSGYHANYCEGECPSHIAGTSGSSLSFHSTVINHYRMRGHSPFANLKSCCVPTKLRPMSMLYYDDGQNIIKKDIQNMIVEECGCS
- proportion of the OSR1− (negative) and SF1+ (positive) cells (human iPS cells [1]; plane culture, FACS day 15): further increased
- size of the embryoid bodies (human iPS cells [1]; step 1 plane culture on fibronectin-coated plate): increased over time
- expression of GATA3 and HOXB9 (human iPS cells [2]; day 15): decreased
- expression of FOXL2 (human iPS cells [2]; day 27): almost equivalent to that in the ovarian somatic cells collected from the living body
- expression of OSR1 ([3]; added in step 1: bFGF 50 ng/mL entire period, Activin A 10 ng/ml one day from day 1, FACS days 2, 4, 6): acted toward enhancing the expression of OSR1
- improvement of induction ([3]; addition of Activin A after day 1 of step 1, FACS days 16 and 28): no improvement was observed
- improvement of the induction of NR5A1-positive cells ([3]; bFGF 50 ng/ml and Activin A 10 ng/ml (only from day 1) in step 1, days 14 and 21): not recognized
